Experiments:
[1] = molecular target: T1, human SEMA4D, full length, on CHO-K1 cells (CHO-K1 hSEMA4D) (human) (UniProt Q92854); test: FACS, CHO-K1 hSEMA4D cells; Ab 13.3 nM
T1 sequence (looked up): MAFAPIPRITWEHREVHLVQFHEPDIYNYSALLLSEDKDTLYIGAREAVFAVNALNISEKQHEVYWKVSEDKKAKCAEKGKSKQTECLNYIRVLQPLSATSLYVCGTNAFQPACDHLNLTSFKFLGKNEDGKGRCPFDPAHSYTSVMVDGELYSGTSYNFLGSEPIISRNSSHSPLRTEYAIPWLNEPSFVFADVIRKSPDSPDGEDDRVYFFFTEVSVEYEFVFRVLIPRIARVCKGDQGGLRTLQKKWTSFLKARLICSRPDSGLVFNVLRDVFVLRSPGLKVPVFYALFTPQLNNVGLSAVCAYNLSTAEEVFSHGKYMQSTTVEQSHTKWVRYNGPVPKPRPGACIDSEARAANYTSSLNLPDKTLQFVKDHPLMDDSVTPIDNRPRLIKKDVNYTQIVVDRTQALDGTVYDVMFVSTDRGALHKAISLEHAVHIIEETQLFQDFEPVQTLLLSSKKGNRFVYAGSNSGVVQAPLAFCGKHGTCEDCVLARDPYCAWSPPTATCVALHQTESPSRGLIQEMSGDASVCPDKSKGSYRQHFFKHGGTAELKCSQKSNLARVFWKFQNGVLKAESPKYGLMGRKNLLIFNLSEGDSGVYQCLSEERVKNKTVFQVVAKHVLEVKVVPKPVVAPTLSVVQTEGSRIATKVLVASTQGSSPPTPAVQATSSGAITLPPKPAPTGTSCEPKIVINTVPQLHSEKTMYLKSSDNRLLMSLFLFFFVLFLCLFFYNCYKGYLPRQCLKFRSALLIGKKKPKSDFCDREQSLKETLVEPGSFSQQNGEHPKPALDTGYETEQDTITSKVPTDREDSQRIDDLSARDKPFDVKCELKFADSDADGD

[2] = molecular target: monkey SEMA4D, full length, on CHO-K1 cells (CHO-K1 cSEMA4D) (monkey); test: FACS, CHO-K1 cSEMA4D cells; Ab 13.3 nM
[3] = molecular target: mouse SEMA4D, full length, on CHO-K1 cells (CHO-K1 mSEMA4D) (mouse) (UniProt O09126); test: FACS, CHO-K1 mSEMA4D cells; Ab 13.3 nM
[4] = molecular target: T1, human SEMA4D, full length, on CHO-K1 cells (CHO-K1 hSEMA4D) (human); test: FACS, CHO-K1 hSEMA4D cells; Ab 0.107 nM
[5] = molecular target: T1, human SEMA4D, full length, on CHO-K1 cells (CHO-K1 hSEMA4D) (human); test: FACS, CHO-K1 hSEMA4D cells; Ab 0.534 nM
[6] = molecular target: mouse SEMA4D, full length, on CHO-K1 cells (CHO-K1 mSEMA4D) (mouse) (UniProt O09126); test: FACS, CHO-K1 mSEMA4D cells; Ab 0.107 nM
[7] = molecular target: T1, human SEMA4D, full length, on CHO-K1 cells (CHO-K1 hSEMA4D) (human); test: FACS, CHO-K1 hSEMA4D cells; Ab 0.0213 nM
[8] = molecular target: monkey SEMA4D, full length, on CHO-K1 cells (CHO-K1 cSEMA4D) (monkey); test: FACS, CHO-K1 cSEMA4D cells; Ab 0.0213 nM
[9] = molecular target: mouse SEMA4D, full length, on CHO-K1 cells (CHO-K1 mSEMA4D) (mouse) (UniProt O09126); test: FACS, CHO-K1 mSEMA4D cells; Ab 0.0213 nM
[10] = molecular target: mouse SEMA4D, full length, on CHO-K1 cells (CHO-K1 mSEMA4D) (mouse) (UniProt O09126); test: FACS, CHO-K1 mSEMA4D cells; Ab 0.00427 nM
[11] = molecular target: T1, human SEMA4D, full length, on CHO-K1 cells (CHO-K1 hSEMA4D) (human); test: FACS, CHO-K1 hSEMA4D cells; Ab 0.000853 nM
[12] = molecular target: hSEMA4D ECD-His (His-tagged human SEMA4D protein extracellular domain, Met22-Arg734) (human) (UniProt Q92854); test: ELISA, coated hSEMA4D ECD-His; Ab 0.0213 nM
[13] = molecular target: T2, biotinylated hSEMA4D ECD-His (human) (UniProt Q92854); test: FACS, blocking of biotinylated hSEMA4D ECD-His binding to 293F hPlexin B1 cells; Ab 66.7 nM
T2 sequence (chain, biotinylated with Biotin-X-X-NHS at a molar ratio of 8,1; sites not stated): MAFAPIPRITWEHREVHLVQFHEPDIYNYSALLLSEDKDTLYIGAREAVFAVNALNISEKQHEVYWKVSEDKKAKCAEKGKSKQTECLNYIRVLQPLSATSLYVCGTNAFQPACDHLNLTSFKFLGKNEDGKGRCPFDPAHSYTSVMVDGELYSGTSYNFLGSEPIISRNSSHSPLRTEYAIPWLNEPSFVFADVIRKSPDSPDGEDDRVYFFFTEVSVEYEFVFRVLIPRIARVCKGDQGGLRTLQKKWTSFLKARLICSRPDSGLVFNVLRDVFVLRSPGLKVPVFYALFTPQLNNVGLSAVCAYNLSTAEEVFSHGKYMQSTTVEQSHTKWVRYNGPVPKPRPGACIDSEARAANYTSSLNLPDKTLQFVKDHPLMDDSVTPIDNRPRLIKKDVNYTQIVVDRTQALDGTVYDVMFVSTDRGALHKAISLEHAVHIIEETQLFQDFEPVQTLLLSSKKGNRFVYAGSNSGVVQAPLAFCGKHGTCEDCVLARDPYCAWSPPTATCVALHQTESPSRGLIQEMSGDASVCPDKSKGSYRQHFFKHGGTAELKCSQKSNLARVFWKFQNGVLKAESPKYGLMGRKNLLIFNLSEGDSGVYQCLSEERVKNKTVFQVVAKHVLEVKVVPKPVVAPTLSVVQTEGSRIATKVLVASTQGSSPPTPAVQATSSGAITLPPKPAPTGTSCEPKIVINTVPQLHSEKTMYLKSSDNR

[14] = molecular target: T2, biotinylated hSEMA4D ECD-His (human); test: FACS, blocking of biotinylated hSEMA4D ECD-His binding to 293F hPlexin B1 cells; Ab 0.534 nM
[15] = molecular target: T2, biotinylated hSEMA4D ECD-His (human); test: FACS, blocking of biotinylated hSEMA4D ECD-His binding to 293F hPlexin B1 cells; Ab 0.00427 nM

MFI [1] | MFI [2] | MFI [3] | MFI [4] | MFI [5] | MFI [6] | MFI [7] | MFI [8] | MFI [9] | MFI [10] | MFI [11] | OD450 nm [12] | MFI (residual ligand binding) [13] | MFI (residual ligand binding) [14] | MFI (residual ligand binding) [15] | Substance
35.8 | 86.7 | 23.8 | 38 | 37.4 | 24.1 | 38.2 | 31.6 | 24.1 | 23.7 | 37.2 | 0.0714 | 321 | 341 | 378 | Human IgG control (antibody)
40.2 | 65.6 | 30.3 | 36.1 | 36.5 | 29.8 | 35.8 | 23.1 | 30.5 | 30.1 | 35.5 | – | 471 | 472 | 486 | Mouse IgG control (antibody)

— patent US20220073608A1
